The text below walks through data of patent publication US20120316071A1 (published 2012).

The labels stand for the following.
B1: Fab VH1-46_IGHD6-6*01_IGHJ1*01 S102A/S103P/S104F/H111F (APFF) & L6_IGKJ1*01 S31M (Fab, V domains shown)
VH: QVQLVQSGAEVKKPGASVKVSCKASGYTFTSYYMHWVRQAPGQGLEWMGIINPSGGSTSYAQKFQGRVTMTRDTSTSTVYMELSSLRSEDTAVYYCAREEYAPFSAEYFQFWGQGTLVTVSS
VL: EIVLTQSPATLSLSPGERATLSCRASQSVSMYLAWYQQKPGQAPRLLIYDASNRATGIPARFSGSGSGTDFTLTISSLEPEDFAVYYCQQRSNWPPWTFGQGTKVEIKR
notes: Fab made in E. coli; The constant parts (CH1 with His6 and Flag tags from plasmid A, kappa CL from plasmid C) are not added here; also called APFF & S31M
B2: Fab VH1-46_IGHD6-6*01_IGHJ1*01 S102A/S103P/S104F/H111F (APFF) & L6_IGKJ1*01 S31K (Fab, V domains shown)
VH: QVQLVQSGAEVKKPGASVKVSCKASGYTFTSYYMHWVRQAPGQGLEWMGIINPSGGSTSYAQKFQGRVTMTRDTSTSTVYMELSSLRSEDTAVYYCAREEYAPFSAEYFQFWGQGTLVTVSS
VL: EIVLTQSPATLSLSPGERATLSCRASQSVSKYLAWYQQKPGQAPRLLIYDASNRATGIPARFSGSGSGTDFTLTISSLEPEDFAVYYCQQRSNWPPWTFGQGTKVEIKR
notes: Fab made in E. coli; The constant parts (CH1 with His6 and Flag tags from plasmid A, kappa CL from plasmid C) are not added here; also called APFF & S31K
B3: Fab VH1-46_IGHD6-6*01_IGHJ1*01 S102A/S103P/S104F/H111F (APFF) & L6_IGKJ1*01 S31F (Fab, V domains shown)
VH: QVQLVQSGAEVKKPGASVKVSCKASGYTFTSYYMHWVRQAPGQGLEWMGIINPSGGSTSYAQKFQGRVTMTRDTSTSTVYMELSSLRSEDTAVYYCAREEYAPFSAEYFQFWGQGTLVTVSS
VL: EIVLTQSPATLSLSPGERATLSCRASQSVSFYLAWYQQKPGQAPRLLIYDASNRATGIPARFSGSGSGTDFTLTISSLEPEDFAVYYCQQRSNWPPWTFGQGTKVEIKR
notes: Fab made in E. coli; The constant parts (CH1 with His6 and Flag tags from plasmid A, kappa CL from plasmid C) are not added here; also called APFF & S31F
B4: Fab VH1-46_IGHD6-6*01_IGHJ1*01 S102A/S103P/S104F/H111F (APFF) & L6_IGKJ1*01 S31E (Fab, V domains shown)
VH: QVQLVQSGAEVKKPGASVKVSCKASGYTFTSYYMHWVRQAPGQGLEWMGIINPSGGSTSYAQKFQGRVTMTRDTSTSTVYMELSSLRSEDTAVYYCAREEYAPFSAEYFQFWGQGTLVTVSS
VL: EIVLTQSPATLSLSPGERATLSCRASQSVSEYLAWYQQKPGQAPRLLIYDASNRATGIPARFSGSGSGTDFTLTISSLEPEDFAVYYCQQRSNWPPWTFGQGTKVEIKR
notes: Fab made in E. coli; The constant parts (CH1 with His6 and Flag tags from plasmid A, kappa CL from plasmid C) are not added here; also called APFF & S31E
B5: Fab VH1-46_IGHD6-6*01_IGHJ1*01 S102A/S103P/S104F/H111F (APFF) & L6_IGKJ1*01 S30V (Fab, V domains shown)
VH: QVQLVQSGAEVKKPGASVKVSCKASGYTFTSYYMHWVRQAPGQGLEWMGIINPSGGSTSYAQKFQGRVTMTRDTSTSTVYMELSSLRSEDTAVYYCAREEYAPFSAEYFQFWGQGTLVTVSS
VL: EIVLTQSPATLSLSPGERATLSCRASQSVVSYLAWYQQKPGQAPRLLIYDASNRATGIPARFSGSGSGTDFTLTISSLEPEDFAVYYCQQRSNWPPWTFGQGTKVEIKR
notes: Fab made in E. coli; The constant parts (CH1 with His6 and Flag tags from plasmid A, kappa CL from plasmid C) are not added here; also called APFF & S30V
B6: Fab VH1-46_IGHD6-6*01_IGHJ1*01 S102A/S103P/S104F/H111F (APFF) & L6_IGKJ1*01 S30Q (Fab, V domains shown)
VH: QVQLVQSGAEVKKPGASVKVSCKASGYTFTSYYMHWVRQAPGQGLEWMGIINPSGGSTSYAQKFQGRVTMTRDTSTSTVYMELSSLRSEDTAVYYCAREEYAPFSAEYFQFWGQGTLVTVSS
VL: EIVLTQSPATLSLSPGERATLSCRASQSVQSYLAWYQQKPGQAPRLLIYDASNRATGIPARFSGSGSGTDFTLTISSLEPEDFAVYYCQQRSNWPPWTFGQGTKVEIKR
notes: Fab made in E. coli; The constant parts (CH1 with His6 and Flag tags from plasmid A, kappa CL from plasmid C) are not added here; also called APFF & S30Q
B7: Fab VH1-46_IGHD6-6*01_IGHJ1*01 S102A/S103P/S104F/H111F (APFF) & L6_IGKJ1*01 S30A (Fab, V domains shown)
VH: QVQLVQSGAEVKKPGASVKVSCKASGYTFTSYYMHWVRQAPGQGLEWMGIINPSGGSTSYAQKFQGRVTMTRDTSTSTVYMELSSLRSEDTAVYYCAREEYAPFSAEYFQFWGQGTLVTVSS
VL: EIVLTQSPATLSLSPGERATLSCRASQSVASYLAWYQQKPGQAPRLLIYDASNRATGIPARFSGSGSGTDFTLTISSLEPEDFAVYYCQQRSNWPPWTFGQGTKVEIKR
notes: Fab made in E. coli; The constant parts (CH1 with His6 and Flag tags from plasmid A, kappa CL from plasmid C) are not added here; also called APFF & S30A
B8: Fab VH1-46_IGHD6-6*01_IGHJ1*01 S102A/S103P/S104F/H111F (APFF) & L6_IGKJ1*01 S30P (Fab, V domains shown)
VH: QVQLVQSGAEVKKPGASVKVSCKASGYTFTSYYMHWVRQAPGQGLEWMGIINPSGGSTSYAQKFQGRVTMTRDTSTSTVYMELSSLRSEDTAVYYCAREEYAPFSAEYFQFWGQGTLVTVSS
VL: EIVLTQSPATLSLSPGERATLSCRASQSVPSYLAWYQQKPGQAPRLLIYDASNRATGIPARFSGSGSGTDFTLTISSLEPEDFAVYYCQQRSNWPPWTFGQGTKVEIKR
notes: Fab made in E. coli; The constant parts (CH1 with His6 and Flag tags from plasmid A, kappa CL from plasmid C) are not added here; also called APFF & S30P
B9: Fab VH1-46_IGHD6-6*01_IGHJ1*01 S102A/S103P/S104F/H111F (APFF) & L6_IGKJ1*01 S30N (Fab, V domains shown)
VH: QVQLVQSGAEVKKPGASVKVSCKASGYTFTSYYMHWVRQAPGQGLEWMGIINPSGGSTSYAQKFQGRVTMTRDTSTSTVYMELSSLRSEDTAVYYCAREEYAPFSAEYFQFWGQGTLVTVSS
VL: EIVLTQSPATLSLSPGERATLSCRASQSVNSYLAWYQQKPGQAPRLLIYDASNRATGIPARFSGSGSGTDFTLTISSLEPEDFAVYYCQQRSNWPPWTFGQGTKVEIKR
notes: Fab made in E. coli; The constant parts (CH1 with His6 and Flag tags from plasmid A, kappa CL from plasmid C) are not added here; also called APFF & S30N
B10: Fab VH1-46_IGHD6-6*01_IGHJ1*01 S102A/S103P/S104F/H111F (APFF) & L6_IGKJ1*01 S31L (Fab, V domains shown)
VH: QVQLVQSGAEVKKPGASVKVSCKASGYTFTSYYMHWVRQAPGQGLEWMGIINPSGGSTSYAQKFQGRVTMTRDTSTSTVYMELSSLRSEDTAVYYCAREEYAPFSAEYFQFWGQGTLVTVSS
VL: EIVLTQSPATLSLSPGERATLSCRASQSVSLYLAWYQQKPGQAPRLLIYDASNRATGIPARFSGSGSGTDFTLTISSLEPEDFAVYYCQQRSNWPPWTFGQGTKVEIKR
notes: Fab made in E. coli; The constant parts (CH1 with His6 and Flag tags from plasmid A, kappa CL from plasmid C) are not added here; also called APFF & S31L

The assay addresses T1, Recombinant Human DLL4 (delta-like protein 4) (human, UniProt Q9NR61 27-524).
T1 construct: Bought recombinant human DLL4 (R&D Systems Cat#1506-D4/CF); also called rHuman DLL4
Put plainly: ECL (MSD) multispot binding assay, antigen spotted on plate, Fab in solution.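 Also: purified Fab incubated 1 h at 20 °C, detected via TAG-labelled antibody electrochemiluminescence, antigen spot compared with the blank in the same well, ratio at least 4 counted as hit.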
Take B1: the Signal/Blank was determined as 378.

Consider B2, for which the “ECL signal” value came to 179000 and the Signal/Blank was found to be 351.

Consider B3, for which the Signal/Blank was 459.

In the case of B4, the “ECL signal” value turned out to be 171000 and the Signal/Blank amounted to 517.

Consider B5, for which the “ECL signal” value turned out to be 141000 and the Signal/Blank was 497.

On to B6, for which the “ECL signal” value was determined as 197000 and the Signal/Blank came to 602.

B7: the “ECL signal” value came to 187000 and the Signal/Blank came out at 1010.

Regarding B8, the “ECL signal” value turned out to be 1260 and the Signal/Blank was 4.2.

Take B9: the “ECL signal” value is 175000 and the Signal/Blank came out at 497.

Take B10: the Signal/Blank was 373.
